According to patent US20250129166A1 (Five Prime, published 2025):
Where a chain is given by its changes, count along the chain named. Each block holds one binder with its values, some of them ahead of it.

Key:
[1] = target: T1, monovalent hVISTA-ECD (amino acids 32-193 of SEQ ID NO: 1 with a 7xHis tail) (human, UniProt Q9H7M9 33-193); experiment: SPR, mAb on Protein A, 37C, pH 6.0; pH 6.0
T1 construct: also called huVISTA-His; human VISTA-ECD
Protocol: Binding of several preparations of each of the '029 progeny clones and of the parent '029 antibodies, formatted as IgG1.3 antibodies, to human VISTA at pH 6.0 and 7.4 was measured by Surface plasmon resonance (SPR). SPR analysis was performed to measure koff and KD binding affinity measurements for VISTA Abs at acidic and neutral pHs using a Biacore® T100 instrument (GE Healthcare). Protein A (ThermoFisher Scientific catalog #21181) was diluted to 20 μg/ml in 10 mM sodium acetate pH 4.5 and immobilized onto flow cells of a CM5 biosensor following the manufacturer's amine coupling protocol (GE Healthcare), targeting 2,000 RU immobilization density of Protein A per flow cell. SPR experiments were conducted at 37° C. using PBST (137 mM sodium chloride, 2.7 mM potassium chloride, 10 mM phosphate buffer, 0.05% Tween® 20) running buffer at pH 7.4 and 6.0. Antibodies were diluted to 25 nM in PBST pH 7.4, and were captured across active biosensor flow cells at 5 ul/min for 60 seconds. A concentration series of 50-5 nM monovalent hVISTA-ECD (SEQ ID NO: 325) was prepared in pH 7.4 and 6.0 running buffers, and was injected over the captured antibodies at 40 ul/min to measure association and dissociation. Two 15 second injections of 10 mM glycine pH 1.5 were used to regenerate the Protein A capture surface between assay cycles. Rate constants ka (kₒₙ) and kd (koff) were derived from reference flow cell and 0 nM blank-subtracted sensorgrams, and were fit to a 1:1 binding model in Biacore® T200 Evaluation Software v.2.0. The affinity constant, KD was calculated as the ratio of rate constants koff/kₒₙ for each VISTA antibody.

[2] = target: T1, monovalent hVISTA-ECD (amino acids …); experiment: SPR, mAb captured on Protein A, hVISTA-ECD analyte, 37 C, pH 6.0
Protocol: (§1) Binding kinetics were measured using a Biacore® T100 instrument (GE Healthcare). Protein A (ThermoFisher Scientific catalog #21181) was diluted to 20 μg/ml in 10 mM sodium acetate pH 4.5 and immobilized onto flow cells of a CM5 biosensor following the manufacturer's amine coupling protocol (GE Healthcare), targeting 2,000 RU immobilization density of Protein A per flow cell. The assay was conducted at 37° C. using PBST (137 mM sodium chloride, 2.7 mM potassium chloride, 10 mM phosphate buffer, 0.05% Tween 20) running buffer at pH 7.4, 6.7 and 6.0. Antibodies were diluted to 25 nM in PBST pH 7.4, and were captured across active biosensor flow cells at 5 ul/min for 40 seconds. A concentration series of 100-10 nM monovalent hVISTA-ECD (SEQ ID NO: 325) was prepared in pH 7.4, 6.7 and 6.0 running buffers, and was injected over the captured antibodies at 40 ul/min to measure association and dissociation. Two 15 second injections of 10 mM glycine pH 1.5 were used to regenerate the Protein A capture surface between assay cycles. Rate constants ka (kon) and kd (koff) were derived from reference flow cell and 0 nM blank-subtracted sensorgrams, and were fit to a 1:1 binding model in Biacore® T200 Evaluation Software v.2.0.
(§2) The affinity constant, KD was calculated as the ratio of rate constants koff/kₒₙ for each VISTA antibody. The % Rmax was calculated to compare how pH affects an antibody's binding capacity for VISTA, and represents the measured maximal VISTA binding response relative to the expected maximal VISTA binding response. The % Rmax is defined as the ratio of the reference-subtracted ‘binding’ report point response at the end of the 100 nM VISTA injection for each antibody (Rmax) relative to the expected VISTA binding response (Rexp). Rexp is calculated as Rexp=[(VISTA-ECD molecular weight/mAb molecular weight)×(mAb ‘capture’ report point response (RUs)]×2 binding sites per mAb.

[3] = target: T1, monovalent hVISTA-ECD (amino acids …); experiment: SPR, mAb captured on Protein A, hVISTA-ECD analyte, 37 C, pH 6.7
Protocol: as §1, §2

T1 sequence (Q9H7M9 other isoform, or with tags, fused parts or gaps limits assumed): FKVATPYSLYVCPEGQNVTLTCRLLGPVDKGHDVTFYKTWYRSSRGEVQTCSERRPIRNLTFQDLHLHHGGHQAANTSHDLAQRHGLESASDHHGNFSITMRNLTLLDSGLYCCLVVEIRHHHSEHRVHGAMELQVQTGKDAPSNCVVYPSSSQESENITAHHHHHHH

Kd [1]: 6.7 nM
koff [1]: 0.0017 s⁻¹
kon [1]: 250000 M⁻¹ s⁻¹
B1: P1-071785 (P1-070906_HC_T84A, FW revertant) (antibody, V domains shown)
VH: EVQLVESGGGLVQPGKSLRLSCAASGFTLEDYAMHWVRQAPGKGLEWVSGINWNSENIGYADSVKGRFTISRDNAKNSLYLQMNSLRAEDTALYYCAKVPGYSGGWIDAEDDWGQGTMVTVSS
VL: not shown
notes: VH/VL only

koff [2]: 0.0052 s⁻¹
koff [3]: 0.014 s⁻¹
B2: P1-068761_H100G (antibody, human IgG1, kappa, V domains shown)
VH: B1 VH with Y32E, N57E, A88T, D112V
VL: not shown
notes: also called P1-070872

Kd [1]: 11 nM
koff [1]: 0.0027 s⁻¹
kon [1]: 240000 M⁻¹ s⁻¹
B3: P1-071791 (P1-070908_HC_T84A, FW revertant) (antibody, V domains shown)
VH: B1 VH with N52D, E56A
VL: not shown
notes: VH/VL only

Kd [1]: 88 nM
koff [1]: 0.024 s⁻¹
kon [1]: 270000 M⁻¹ s⁻¹
B4: P1-072008 (P1-061029_Y32E_F100fE) (antibody, human IgG1, kappa, V domains shown)
VH: B1 VH with E30D, Y32E, E56A, A88T, D112V
VL: not shown
notes: also called P1-72008

koff [2]: 0.0081 s⁻¹
B5: P1-068761_E56N_H100G (antibody, human IgG1, kappa, V domains shown)
VH: B1 VH with Y32E, A88T, D112V
VL: not shown
notes: also called P1-070900

Kd [1]: 7.7 nM
koff [1]: 0.0017 s⁻¹
kon [1]: 220000 M⁻¹ s⁻¹
B6: P1-071781 (P1-070906_HC_K16R_T84A, FW revertant) (antibody, V domains shown)
VH: B1 VH with K16R
VL: not shown
notes: VH/VL only

Kd [1]: 4.9 nM
koff [1]: 0.0014 s⁻¹
kon [1]: 290000 M⁻¹ s⁻¹
B7: P1-071763 (P1-068761_HC_K16R_T84A, FW revertant) (antibody, V domains shown)
VH: B1 VH with K16R, Y32E, N57E, G104H, D112V
VL: not shown
notes: VH/VL only

koff [2]: 0.0056 s⁻¹
koff [3]: 0.029 s⁻¹
B8: P1-068761_E55A_E56N (antibody, human IgG1, kappa, V domains shown)
VH: B1 VH with Y32E, E56A, A88T, G104H, D112V
VL: not shown
notes: also called P1-070878

Kd [1]: 5 nM
kon [1]: 280000 M⁻¹ s⁻¹
B9: P1-071765 (P1-068761_HC_K16R, FW revertant) (antibody, V domains shown)
VH: B1 VH with K16R, Y32E, N57E, A88T, G104H, D112V
VL: not shown
notes: VH/VL only

Kd [1]: 6.4 nM
koff [1]: 0.0017 s⁻¹
kon [1]: 270000 M⁻¹ s⁻¹
B10: P1-071777 (P1-070868_HC_K16R, FW revertant) (antibody, V domains shown)
VH: B1 VH with K16R, Y32E, E56A, N57E, A88T, G104H, D112V
VL: not shown
notes: VH/VL only

koff [2]: 0.021 s⁻¹
B11: P1-068761_E30D_H100G (antibody, human IgG1, kappa, V domains shown)
VH: B1 VH with E30D, Y32E, N57E, A88T, D112V
VL: not shown
notes: also called P1-070894

koff [2]: 0.0074 s⁻¹
B12: P1-068761_E30D_E55A (antibody, human IgG1, kappa, V domains shown)
VH: B1 VH with E30D, Y32E, E56A, N57E, A88T, G104H, D112V
VL: not shown
notes: also called P1-070890

Kd [1]: 12 nM
koff [1]: 0.0023 s⁻¹
kon [1]: 200000 M⁻¹ s⁻¹
B13: P1-072000 (P1-061029_F100fE_V102D) (antibody, human IgG1, kappa, V domains shown)
VH: B1 VH with E30D, E56A, A88T
VL: not shown
notes: also called P1-72000

koff [2]: 0.034 s⁻¹
B14: P1-068761_E30D_E56N (antibody, human IgG1, kappa, V domains shown)
VH: B1 VH with E30D, Y32E, A88T, G104H, D112V
VL: not shown
notes: also called P1-070892

Kd [1]: 13 nM
koff [1]: 0.0027 s⁻¹
kon [1]: 210000 M⁻¹ s⁻¹
B15: P1-071787 (P1-070908_HC_K16R_T84A, FW revertant) (antibody, V domains shown)
VH: B1 VH with K16R, N52D, E56A
VL: not shown
notes: VH/VL only

Kd [1]: 6.9 nM
koff [1]: 0.0017 s⁻¹
kon [1]: 250000 M⁻¹ s⁻¹
B16: P1-071775 (P1-070868_HC_K16R_T84A, FW revertant) (antibody, V domains shown)
VH: B1 VH with K16R, Y32E, E56A, N57E, G104H, D112V
VL: not shown
notes: VH/VL only
